Measured values: patent US20220396631A1 (Novartis, published 2022)
Changes are numbered by the printed parent chain.

Assays:
Human CD2 = molecular target: T1, Human CD2 (human, UniProt P06729 25-209); assay: isothermal titration calorimetry; 100 uM CD2 titrated into 10 uM CD58 variant in HBS
T1 construct: also called recombinant human CD2; CD2 extracellular domain
T1 sequence: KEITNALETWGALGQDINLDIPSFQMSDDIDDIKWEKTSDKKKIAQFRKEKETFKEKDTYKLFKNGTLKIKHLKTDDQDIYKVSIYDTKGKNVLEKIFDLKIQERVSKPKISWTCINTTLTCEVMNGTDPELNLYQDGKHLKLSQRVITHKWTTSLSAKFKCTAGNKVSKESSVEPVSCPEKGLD
Description: To ensure the binding affinity remained uncompromised by the additional of the stabilizing disulfide variance, isothermal calorimetry (ITC) was performed on the resulting recombinant CD58 proteins to determine their apparent KD and binding stoicheometry (n) to recombinant human CD2.
Briefly, recombinant human CD2 and recombinant human CD58 variants were dialyzed into HEPES-buffered saline (HBS). CD2 was diluted to final concentration of 100 μM, CD58 variants were diluted to 10 μM. CD2 was titrated into 10 μM of CD58 variants via multiple injections and ΔH (kcal/mole) determined using a MicroCal VP-ITC isothermal titration calorimeter (Malvern). Titrations of CD2 into HBS were used as a reference and KD and n determined from the resulting data.

human BCMA [1] = molecular target: T2, human BCMA (human, UniProt Q02223 1-54, limits assumed); assay: affinity maturation of PI-61
T2 construct: also called B-cell maturation antigen; TNFRSF17
T2 sequence (looked up): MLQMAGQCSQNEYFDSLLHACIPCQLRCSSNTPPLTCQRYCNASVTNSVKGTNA

human BCMA [2] = molecular target: T2, human BCMA; assay: phage display selection

B1: CD58 Full ECD (ligand)
chain: SQQIYGVVYGNVTFHVPSNVPLKEVLWKKQKDKVAELENSEFRAFSSFKNRVYLDTVSGSLTIYNLTSSDEDEYEMESPNITDTMKFFLYVLESLPSPTLTCALTNGSIEVQCMIPEHYNSHRGLIMYSWDCPMEQCKRNSTSIYFKMENDLPQKIQCTLSNPLFNTTSSIILTTCIPSSGHSRHRGGGGSHHHHHHHH
notes: Recombinant, made in HEK293 cells
- n (binding stoichiometry) (Human CD2): 0.92

B2: CD58_IgV (ligand)
chain: SQQIYGVVYGNVTFHVPSNVPLKEVLWKKQKDKVAELENSEFRAFSSFKNRVYLDTVSGSLTIYNLTSSDEDEYEMESPNITDTMKFFLYVLESGGGGSHHHHHHHH
notes: Recombinant, made in HEK293 cells; also called CD58 domain 1; IgV domain of CD58 (wild type)
- Kd (Human CD2): 610 nM
- n (binding stoichiometry) (Human CD2): 0.96

B3: IgV V45C_M114C (ligand)
chain: B2 chain with V16C, M85C
notes: Disulfide-stabilised variant
- Kd (Human CD2): 380 nM
- n (binding stoichiometry) (Human CD2): 0.88

B4: IgV V45C_M105C (ligand)
chain: B2 chain with V16C, M76C
notes: Disulfide-stabilised variant
- Kd (Human CD2): 880 nM
- n (binding stoichiometry) (Human CD2): 0.97

B5: IgV V54C_G88C (ligand)
chain: B2 chain with V25C, G59C
notes: Disulfide-stabilised variant
- Kd (Human CD2): 600 nM
- n (binding stoichiometry) (Human CD2): 0.83

B6: H2/L2-36 (antibody, V domains shown)
VH: QAQLQSSGGGVVQPGRSLRLSCAASGFTFSSYGMHWVRQAPGKGLEWVAVISYKGSNKYYADSVKGRFTISRDNSKNTLYLQMNSLRAEDTAVYYCGGSGYALHDDYYGLDVWGQGTLVTVSS
VL: QSALTQPASVSGSPGQSITISCTGTSSDVGGYNYVSWYQQHPGKAPKLMIYEVSNRLRGVSNRFSGSKFGNTASLTISGLQAEDEADYYCSSYTSSSTLYVFGSGTKVTVL
notes: AB3 family
- binding result (human BCMA [1]): binds

B7: H2/L2-22 (antibody, V domains shown)
VH: B6 VH with G8E, K54H
VL: B6 VL with R58S
notes: AB3 family
- binding result (human BCMA [1]): binds

B8: H3-3 (antibody, V domains shown)
VH: B6 VH with A2V, F29V, K54S, D106Q, Y108K, G109P, L110V
VL: B6 VL
notes: AB3 family
- binding result (human BCMA [1]): binds

B9: H3-13 (antibody, V domains shown)
VH: B6 VH with A2V, S6E, K54D, G55D, S56A, N57H, D106Q, Y108K, G109P, L110V
VL: B6 VL
notes: AB3 family
- binding result (human BCMA [1]): binds

B10: H3-9 (antibody, V domains shown)
VH: B6 VH with A2V, S6G, K54D, G55D, S56A, N57H, D106Q, Y108K, G109P, L110V
VL: B6 VL with D87Y
notes: AB3 family
- binding result (human BCMA [1]): binds

B11: H3-8 (antibody, V domains shown)
VH: B6 VH with S6G, G8E, K54D, G55D, S56A, N57H, D106Q, Y108K, G109P, L110V
VL: B6 VL
notes: AB3 family
- binding result (human BCMA [1]): binds

B12: H3-6 (antibody, V domains shown)
VH: B6 VH with S6R, K54D, G55D, S56A, N57H, D106Q, Y108K, G109P, L110V
VL: B6 VL with T98A
notes: AB3 family
- binding result (human BCMA [1]): binds

B13: AB3 (antibody, V domains shown)
VH: B6 VH with A2V, Q5V, S6E, F29V, K54T
VL: B6 VL with E52D, F69S, T98A
notes: AB3 family
- binding result (human BCMA [1]): binds

B14: H3-12 (antibody, V domains shown)
VH: B6 VH with G8E, K54D, G55E, A102E, L103V, H104D, D105Q
VL: B6 VL
notes: AB3 family
- binding result (human BCMA [1]): binds

B15: H2/L2-88 (antibody, V domains shown)
VH: B6 VH with A2V, G8E
VL: B6 VL with T98A
notes: AB3 family
- binding result (human BCMA [1]): binds

B16: H2/L2-83 (antibody, V domains shown)
VH: B6 VH with S6G
VL: B6 VL
notes: AB3 family
- binding result (human BCMA [1]): binds

B17: H2/L2-80 (antibody, V domains shown)
VH: B6 VH with A2V, K54T
VL: B6 VL with E52D, L57A, R58W, T98A
notes: AB3 family
- binding result (human BCMA [1]): binds

B18: H3-10 (antibody, V domains shown)
VH: B6 VH with A2V, K54N, G55D, S56L, A102E, L103F, H104Q, D105G
VL: B6 VL
notes: AB3 family
- binding result (human BCMA [1]): binds

B19: H3-1 (antibody, V domains shown)
VH: B6 VH with A2V, S6G, K54D, G55D, S56A, N57H, D106Q, Y108K, G109P, L110V
VL: B6 VL
notes: AB3 family
- binding result (human BCMA [1]): binds

B20: H3-15 (antibody, V domains shown)
VH: B6 VH with A2V, S6G, F29V, K54D, G55D, S56A, N74S, L103Y, H104D, D105G
VL: B6 VL with R58G, T98A
notes: AB3 family
- binding result (human BCMA [1]): binds

B21: H3-2 (antibody, V domains shown)
VH: QAQLQESEGGVVQPGGSLRLSCAASGFTFSSYGMHWVRQAPGKGLEWVAVISYNDLNKYYADSVKGRFTISRDNSKNTLYLQMNSLRAEDTAVYYCGGSGYALHDFQDPTDVWGQGTLVTVSS
VL: B6 VL
notes: AB3 family
- binding result (human BCMA [1]): binds

B22: H3-4 (antibody, V domains shown)
VH: B6 VH with A2V, S6G, K54D, G55D, S56A, N57H, D106Q, Y108K, G109P, L110V
VL: B6 VL with T98A
notes: AB3 family
- binding result (human BCMA [1]): binds

B23: H3-7 (antibody, V domains shown)
VH: B6 VH with A2V, G8E, F29L, K54T, A102E, L103F, D105E
VL: B6 VL
notes: AB3 family
- binding result (human BCMA [1]): binds

B24: H3-5 (antibody, V domains shown)
VH: B6 VH with A2V, S6G, K54T, S56A, A102N
VL: B6 VL with R58S
notes: AB3 family
- binding result (human BCMA [1]): binds

B25: H2/L2-18 (antibody, V domains shown)
VH: B6 VH with S6G, N57H
VL: B6 VL with E52D, L57P, R58W
notes: AB3 family
- binding result (human BCMA [1]): binds

B26: H3-11 (antibody, V domains shown)
VH: B6 VH with A2V, G8E, K54N, G55D, S56A, A102E, H104R
VL: B6 VL
notes: AB3 family
- binding result (human BCMA [1]): binds

B27: H2/L2-47 (antibody, V domains shown)
VH: B6 VH with A2V, G8E
VL: B6 VL with E52D, L57P, R58W
notes: AB3 family
- binding result (human BCMA [1]): binds

B28: H3-14 (antibody, V domains shown)
VH: B6 VH with A2V, S6G, K54D, G55D, S56A, N57H, D106Q, Y108K, G109P, L110V
VL: B6 VL with R58S, T98A
notes: AB3 family
- binding result (human BCMA [1]): binds

B29: H2/L2-20 (antibody, V domains shown)
VH: B6 VH with F29V, K54T
VL: B6 VL with E52D, T98A
notes: AB3 family
- binding result (human BCMA [1]): binds

B30: H2/L2-68 (antibody, V domains shown)
VH: B6 VH with G8E, K54R, S56F, L110Q
VL: B6 VL with E52D, R58S
notes: AB3 family
- binding result (human BCMA [1]): binds

B31: PI-61 (antibody, V domains shown)
VH: B6 VH with A2V, S6E, K54D
VL: B6 VL with E52D, L57P, R58S, F69S
notes: also called parental PI-61 antibody; P1-61
- binding result (human BCMA [2]): binds
